Measurements: patent US20160046921A1

T1: Pro-Gly
T1 chain: PG

T2: Gly-Gly
T2 chain: GG

T3: Z-Gly-Gly
T3 chain: GG

T4: H-Cys(Bzl)-Gly-OH (S-benzyl-Cys-Gly)
T4 chain: CG

T5: Ala-Gly
T5 chain: AG

T6: Ala-Ala
T6 chain: AA

T7: cys-gly-conjugate (compound of formula FIII)
T7 chain: CG

B1: Ax20 peptidase (peptidase from Corynebacterium sp. Ax20, SEQ ID NO:2), recombinant, without histidine tag (enzyme)
chain: MSNDKAATSTNFNLTPNRERIFQELSELISHYSPHSMPEHADTHEEAAKWVTAKLEELGLDVTRHPTVDDADTIIGVKEPVGDAPTILLYSHYDVVPAQNPAVWTNDPLELDERDGRWYGRGAADCKGNVIMHLEALRMVQENGGTDLGLKVVMEGSEELGGEDGLGKLIDANPELFTADVIFIGDGGNVAVGIPTLTTHLRGGAQLRFKVDTLEGPVHSGGWGGAAPDAAHALIRIIDSFFDEHGRTTIEGVDTTAKWEGDPYDRETFRKDARVLDGVQLLGTVDDEPADMVWARPAITVIGFTSVPVEDATNIVNPTAEAQFNLRVPAPQSAAEVAKKVEEQIRARAPWGAKVEVSITGVNEPFSTDPNGPAVQHFGKCLQDAYGAEHLTVVGTGGSIPLTVTLQKHFPDAEFALYGVADPAANIHGVDESVDPTEIEHVAIAEAEFLLTYGK
B2: Ax20 peptidase with histidine tag (SEQ ID NO:2 ligated to a 6x Histidine-Tag), recombinant (enzyme, not shown: small tags and cut ends)
chain: B1 chain
B3: β-lyase from Corynebacterium sp. Ax20 (cystathionine-β-lyase, metC gene product) (protein)
chain: MQFSNLDTLRTRGTRKWTQFDDDVIPMFVAESDFPTAPAIKEAIIDACEREMFGYTPAPHAHHLGEAVADFYDWRYGWRPDAAKIFPVADVVRGVLLAIQYFTDGDVIVPVPAYFPFLPIAEAAGRNRIDISSDKGLEGGLDMAEVEEAFKNGAGSIIVTNPFNPGGWMFTSEELDQICDIARRYKGRVLVDEIHAPLTYGKRHVCAAANNPDVCITVTATSKAWNVAGLKCAQMIFTNDEDVKTWNAINPVAKDGVGTLGIIAAEAAYESGREHLDWQVEQLKANRDWLVENLPSLIPGIRFEIPDATYLMFLDFKDTKLGVDKPAAYLLKHARVALSEGVDFGPGGEHRARMNFATSPEILKEATERIARAIEVV

Key:
[1] = target: cys-gly-conjugate (compound of formula FIII); test: cell-based or functional assay
Pro-Gly = target: T1, Pro-Gly
Gly-Gly = target: T2, Gly-Gly
Z-Gly-Gly = target: T3, Z-Gly-Gly
[2] = target: T4, H-Cys(Bzl)-Gly-OH (S-benzyl-Cys-Gly)
Ala-Gly = target: T5, Ala-Gly
Ala-Ala = target: T6, Ala-Ala
[3] = target: T7, cys-gly-conjugate (compound of formula …)

| Binder | release of 3-sulfanyl-3-methyl-hexanol from the Cys-Gly-conjugate [mM]; 10 fold dilution of clear cell lysate, + β-lyase [1] | release of 3-sulfanyl-3-methyl-hexanol from the Cys-Gly-conjugate [mM]; 100 fold dilution of clear cell lysate, + β-lyase [1] | release of 3-sulfanyl-3-methyl-hexanol from the Cys-Gly-conjugate [mM]; 1000 fold dilution of clear cell lysate, + β-lyase [1] | release of a free NH2 group (fluorescamine derivatisation) (Pro-Gly) | Cleavage (thin layer chromatography) (Gly-Gly) | Cleavage (thin layer chromatography) (Z-Gly-Gly) | Cleavage (thin layer chromatography) (Pro-Gly) | Cleavage (thin layer chromatography) [2] | Cleavage (thin layer chromatography) (Ala-Gly) | Cleavage (thin layer chromatography) (Ala-Ala) | Cleavage (thin layer chromatography) [3] | release of 3-sulfanyl-3-methyl-hexanol from cys-gly-conjugate [mM] (gas chromatography) [3] |
| --- | --- | --- | --- | --- | --- | --- | --- | --- | --- | --- | --- | --- |
| B1 | 1 mM | 0.92 mM | 0.46 mM | Cleavage of the peptide substrate Pro-Gly by addition of the recombinant Ax20 peptidase (SEQ ID NO: 2) released a unique free NH2 group |  |  |  |  |  |  |  |  |
| B2 | 0.94 mM | 0.88 mM | 0.36 mM |  | + | - | + | +++ | ++ | ++ | +++ |  |
| B3 |  |  |  |  |  |  |  |  |  |  |  | < 0.03 mM |
